Assay results published in IntAct's records for PubMed 25502805.

B1: Scaffold protein ILK (Homo sapiens), Q13418 (parent)
chain: MDDIFTQCREGNAVAVRLWLDNTENDLNQGDDHGFSPLHWACREGRSAVVEMLIMRGARINVMNRGDDTPLHLAASHGHRDIVQKLLQYKADINAVNEHGNVPLHYACFWGQDQVAEDLVANGALVSICNKYGEMPVDKAKAPLRELLRERAEKMGQNLNRIPYKDTFWKGTTRTRPRNGTLNKHSGIDFKQLNFLTKLNENHSGELWKGRWQGNDIVVKVLKVRDWSTRKSRDFNEECPRLRIFSHPNVLPVLGACQSPPAPHPTLITHWMPYGSLYNVLHEGTNFVVDQSQAVKFALDMARGMAFLHTLEPLIPRHALNSRSVMIDEDMTARISMADVKFSFQCPGRMYAPAWVAPEALQKKPEDTNRRSADMWSFAVLLWELVTREVPFADLSNMEIGMKVALEGLRPTIPPGISPHVCKLMKICMNEDPAKRPKFDMIVPILEKMQDK
partner: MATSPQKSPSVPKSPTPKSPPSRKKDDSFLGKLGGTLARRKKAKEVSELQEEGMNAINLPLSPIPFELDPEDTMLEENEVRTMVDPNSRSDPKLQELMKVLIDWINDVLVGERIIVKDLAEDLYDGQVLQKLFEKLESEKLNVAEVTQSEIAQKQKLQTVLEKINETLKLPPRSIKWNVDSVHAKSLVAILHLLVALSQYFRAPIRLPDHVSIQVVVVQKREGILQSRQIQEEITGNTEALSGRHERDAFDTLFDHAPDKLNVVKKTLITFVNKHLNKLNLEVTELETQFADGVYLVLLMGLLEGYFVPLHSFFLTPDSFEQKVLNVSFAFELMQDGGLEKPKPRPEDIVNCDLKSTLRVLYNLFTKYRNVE
B2: Actin nucleation-promoting factor WAS (Homo sapiens), P42768 (parent)
chain: MSGGPMGGRPGGRGAPAVQQNIPSTLLQDHENQRLFEMLGRKCLTLATAVVQLYLALPPGAEHWTKEHCGAVCFVKDNPQKSYFIRLYGLQAGRLLWEQELYSQLVYSTPTPFFHTFAGDDCQAGLNFADEDEAQAFRALVQEKIQKRNQRQSGDRRQLPPPPTPANEERRGGLPPLPLHPGGDQGGPPVGPLSLGLATVDIQNPDITSSRYRGLPAPGPSPADKKRSGKKKISKADIGAPSGFKHVSHVGWDPQNGFDVNNLDPDLRSLFSRAGISEAQLTDAETSKLIYDFIEDQGGLEAVRQEMRRQEPLPPPPPPSRGGNQLPRPPIVGGNKGRSGPLPPVPLGIAPPPPTPRGPPPPGRGGPPPPPPPATGRSGPLPPPPPGAGGPPMPPPPPPPPPPPSSGNGPAPPPLPPALVPAGGLAPGGGRGALLDQIRQGIQLNKTPGAPESSALQPPPQSSEGLVGALMHVMQKRSRAIHSSDEGEDQAGDEDEDDEWDD
B3: Barrier-to-autointegration factor (Homo sapiens), O75531 (parent)
chain: MTTSQKHRDFVAEPMGEKPVGSLAGIGEVLGKKLEERGFDKAYVVLGQFLVLKKDEDLFREWLKDTCGANAKQSRDCFGCLREWCDAFL
partner: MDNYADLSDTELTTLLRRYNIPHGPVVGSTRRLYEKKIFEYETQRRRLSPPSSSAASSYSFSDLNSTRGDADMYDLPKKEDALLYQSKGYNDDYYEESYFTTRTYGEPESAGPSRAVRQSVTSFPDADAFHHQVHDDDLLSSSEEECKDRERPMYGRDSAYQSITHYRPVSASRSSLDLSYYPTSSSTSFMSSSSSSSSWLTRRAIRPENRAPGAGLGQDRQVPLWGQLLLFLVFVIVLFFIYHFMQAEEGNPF
B4: ADP-ribosylation factor-like protein 2-binding protein (Homo sapiens), Q9Y2Y0 (parent)
chain: MDALEGESFALSFSSASDAEFDAVVGYLEDIIMDDEFQLLQRNFMDKYYLEFEDTEENKLIYTPIFNEYISLVEKYIEEQLLQRIPEFNMAAFTTTLQHHKDEVAGDIFDMLLTFTDFLAFKEMFLDYRAEKEGRGLDLSSGLVVTSLCKSSSLPASQNNLRH
B5: Cyclin-dependent kinase 4 inhibitor C (Homo sapiens), P42773 (parent)
chain: MAEPWGNELASAAARGDLEQLTSLLQNNVNVNAQNGFGRTALQVMKLGNPEIARRLLLRGANPDLKDRTGFAVIHDAARAGFLDTLQTLLEFQADVNIEDNEGNLPLHLAAKEGHLRVVEFLVKHTASNVGHRNHKGDTACDLARLYGRNEVVSLMQANGAGGATNLQ
B6: Emerin (Homo sapiens), P50402 (parent)
chain: B3 partner
partner: B3 chain
B7: Peroxisomal biogenesis factor 3 (Homo sapiens), P56589 (parent)
chain: MLRSVWNFLKRHKKKCIFLGTVLGGVYILGKYGQKKIREIQEREAAEYIAQARRQYHFESNQRTCNMTVLSMLPTLREALMQQLNSESLTALLKNRPSNKLEIWEDLKIISFTRSTVAVYSTCMLVVLLRVQLNIIGGYIYLDNAAVGKNGTTILAPPDVQQQYLSSIQHLLGDGLTELITVIKQAVQKVLGSVSLKHSLSLLDLEQKLKEIRNLVEQHKSSSWINKDGSKPLLCHYMMPDEETPLAVQACGLSPRDITTIKLLNETRDMLESPDFSTVLNTCLNRGFSRLLDNMAEFFRPTEQDLQHGNSMNSLSSVSLPLAKIIPIVNGQIHSVCSETPSHFVQDLLTMEQVKDFAANVYEAFSTPQQLEK
partner: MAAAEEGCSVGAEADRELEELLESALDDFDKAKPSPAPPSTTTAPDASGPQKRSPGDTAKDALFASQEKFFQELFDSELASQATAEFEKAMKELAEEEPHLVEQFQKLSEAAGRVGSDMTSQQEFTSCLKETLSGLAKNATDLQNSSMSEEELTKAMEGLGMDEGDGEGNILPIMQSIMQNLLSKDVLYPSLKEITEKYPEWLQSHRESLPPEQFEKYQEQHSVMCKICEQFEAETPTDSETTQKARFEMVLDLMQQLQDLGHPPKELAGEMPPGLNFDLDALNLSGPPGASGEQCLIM
B8: Kelch-like protein 3 (Homo sapiens), Q9UH77 (parent)
chain: MEGESVKLSSQTLIQAGDDEKNQRTITVNPAHMGKAFKVMNELRSKQLLCDVMIVAEDVEIEAHRVVLAACSPYFCAMFTGDMSESKAKKIEIKDVDGQTLSKLIDYIYTAEIEVTEENVQVLLPAASLLQLMDVRQNCCDFLQSQLHPTNCLGIRAFADVHTCTDLLQQANAYAEQHFPEVMLGEEFLSLSLDQVCSLISSDKLTVSSEEKVFEAVISWINYEKETRLEHMAKLMEHVRLPLLPRDYLVQTVEEEALIKNNNTCKDFLIEAMKYHLLPLDQRLLIKNPRTKPRTPVSLPKVMIVVGGQAPKAIRSVECYDFEEDRWDQIAELPSRRCRAGVVFMAGHVYAVGGFNGSLRVRTVDVYDGVKDQWTSIASMQERRSTLGAAVLNDLLYAVGGFDGSTGLASVEAYSYKTNEWFFVAPMNTRRSSVGVGVVEGKLYAVGGYDGASRQCLSTVEQYNPATNEWIYVADMSTRRSGAGVGVLSGQLYATGGHDGPLVRKSVEVYDPGTNTWKQVADMNMCRRNAGVCAVNGLLYVVGGDDGSCNLASVEYYNPVTDKWTLLPTNMSTGRSYAGVAVIHKSL
B9: pre-mRNA splicing regulator USH1G (Homo sapiens), Q495M9 (parent)
chain: MNDQYHRAARDGYLELLKEATRKELNAPDEDGMTPTLWAAYHGNLESLRLIVSRGGDPDKCDIWGNTPLHLAASNGHLHCLSFLVSFGANIWCLDNDYHTPLDMAAMKGHMECVRYLDSIAAKQSSLNPKLVGKLKDKAFREAERRIRECAKLQRRHHERMERRYRRELAERSDTLSFSSLTSSTLSRRLQHLALGSHLPYSQATLHGTARGKTKMQKKLERRKQGGEGTFKVSEDGRKSARSLSGLQLGSDVMFVRQGTYANPKEWGRAPLRDMFLSDEDSVSRATLAAEPAHSEVSTDSGHDSLFTRPGLGTMVFRRNYLSSGLHGLGREDGGLDGVGAPRGRLQSSPSLDDDSLGSANSLQDRSCGEELPWDELDLGLDEDLEPETSPLETFLASLHMEDFAALLRQEKIDLEALMLCSDLDLRSISVPLGPRKKILGAVRRRRQAMERPPALEDTEL
partner: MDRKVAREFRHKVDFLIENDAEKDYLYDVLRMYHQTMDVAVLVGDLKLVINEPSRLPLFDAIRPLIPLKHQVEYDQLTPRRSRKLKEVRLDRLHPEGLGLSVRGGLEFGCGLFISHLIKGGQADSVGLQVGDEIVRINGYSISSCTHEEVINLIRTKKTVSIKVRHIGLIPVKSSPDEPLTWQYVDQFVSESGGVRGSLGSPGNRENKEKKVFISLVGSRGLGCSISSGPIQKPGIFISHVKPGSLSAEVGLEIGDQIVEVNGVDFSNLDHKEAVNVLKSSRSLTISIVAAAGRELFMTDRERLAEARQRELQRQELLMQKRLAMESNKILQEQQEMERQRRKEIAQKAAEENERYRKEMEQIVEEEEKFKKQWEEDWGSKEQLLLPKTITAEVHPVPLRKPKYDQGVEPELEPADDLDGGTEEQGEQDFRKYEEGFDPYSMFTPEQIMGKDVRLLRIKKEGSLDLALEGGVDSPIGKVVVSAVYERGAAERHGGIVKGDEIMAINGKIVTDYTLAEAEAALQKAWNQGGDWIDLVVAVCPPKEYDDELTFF

Variants of: B1
Settings: with parva_human PARVA

| Variant | effect of a mutation on the interaction |
| --- | --- |
| A262V | with no effect |

Variants of: B2
Settings: with cdc42_human CDC42, P60953
Chain of cdc42_human CDC42, P60953 (P60953 whole entry, looked up): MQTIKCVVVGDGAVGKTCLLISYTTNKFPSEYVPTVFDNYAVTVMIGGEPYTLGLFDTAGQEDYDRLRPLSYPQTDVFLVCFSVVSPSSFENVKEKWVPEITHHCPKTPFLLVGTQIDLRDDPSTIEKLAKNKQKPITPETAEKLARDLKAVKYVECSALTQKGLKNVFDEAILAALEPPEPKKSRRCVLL

| Variant | effect of a mutation on the interaction |
| --- | --- |
| I294T | disrupting interaction strength |
| E131K | with no effect |

Variants of: B3
Settings: with emd_human EMD

| Variant | effect of a mutation on the interaction |
| --- | --- |
| A12T | with no effect |

Variants of: B4
Settings: with arl2_human ARL2, P36404
Chain of arl2_human ARL2, P36404 (P36404 whole entry): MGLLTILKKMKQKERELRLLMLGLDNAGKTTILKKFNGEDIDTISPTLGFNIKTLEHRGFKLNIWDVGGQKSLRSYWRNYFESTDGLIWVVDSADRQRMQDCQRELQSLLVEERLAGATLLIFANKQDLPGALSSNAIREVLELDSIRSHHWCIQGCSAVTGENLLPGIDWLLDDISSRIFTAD

| Variant | effect of a mutation on the interaction |
| --- | --- |
| M45R | disrupting interaction strength |

Variants of: B5
Settings: with cdk6_human CDK6, Q00534
Chain of cdk6_human CDK6, Q00534 (Q00534 whole entry): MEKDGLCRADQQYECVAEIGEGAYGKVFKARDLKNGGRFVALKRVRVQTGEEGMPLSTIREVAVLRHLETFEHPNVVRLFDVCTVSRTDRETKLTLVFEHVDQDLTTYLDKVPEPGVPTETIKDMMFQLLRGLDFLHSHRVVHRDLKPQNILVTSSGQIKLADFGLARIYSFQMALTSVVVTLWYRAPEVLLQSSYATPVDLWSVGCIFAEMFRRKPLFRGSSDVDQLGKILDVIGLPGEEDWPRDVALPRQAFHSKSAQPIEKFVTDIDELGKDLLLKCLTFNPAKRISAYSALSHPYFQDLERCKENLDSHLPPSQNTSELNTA

| Variant | effect of a mutation on the interaction |
| --- | --- |
| V31L | with no effect |

Variants of: B6
Settings: with baf_human BANF1, O75531

| Variant | effect of a mutation on the interaction |
| --- | --- |
| S54F | with no effect |
| D72V | with no effect |
| P183T | with no effect |

Variants of: B7
Settings: with pex19_human PEX19, P40855

| Variant | effect of a mutation on the interaction |
| --- | --- |
| D347Y | with no effect |

Variants of: B8
Settings: with cul3_human CUL3, Q13618

| Variant | effect of a mutation on the interaction |
| --- | --- |
| C164F | disrupting interaction strength |
| R228G | disrupting interaction strength |

Variants of: B9
Settings: with ush1c_human USH1C

| Variant | effect of a mutation on the interaction |
| --- | --- |
| L16V | with no effect |
| L48P | with no effect |
